Series [1] has as its target T1, LGP2 RD wt (human, UniProt Q96C10 537-678).
T1 sequence: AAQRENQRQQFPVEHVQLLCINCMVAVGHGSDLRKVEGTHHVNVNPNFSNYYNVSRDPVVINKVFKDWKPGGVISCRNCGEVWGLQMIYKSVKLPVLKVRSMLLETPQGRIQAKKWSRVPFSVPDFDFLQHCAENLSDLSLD
The series is described as follows: competition.

Series [2] addresses T1, LGP2 RD wt. The series is described as follows: competition. This is another data set of the same source.
In series [3] the target is T1, LGP2 RD wt. The experiment in a line: fluorescence anisotropy.
A further series deals with T2, LGP2 RD P606K (human, UniProt Q96C10 537-678, P606K).
T2 sequence: T1 sequence with P70K
The experiment in a line: fluorescence anisotropy.

In the next series the target is T3, LGP2 RD W604A (human, UniProt Q96C10 537-678, W604A).
T3 sequence: T1 sequence with W68A
The series is described as follows: fluorescence anisotropy.

The next series addresses T4, LGP2 RD H576Y (human, UniProt Q96C10 537-678, H576Y).
T4 sequence: T1 sequence with H40Y
The series is described as follows: fluorescence anisotropy.

In another series the target is T5, LGP2 RD K626E (human, UniProt Q96C10 537-678, K626E).
T5 sequence: T1 sequence with K90E
The series is described as follows: fluorescence anisotropy.

For the next series, the target named is T6, LGP2 RD K605E (human, UniProt Q96C10 537-678, K605E).
T6 sequence: T1 sequence with K69E
The series is described as follows: fluorescence anisotropy.

The target of another series is T7, LGP2 RD L621A (human, UniProt Q96C10 537-678, L621A).
T7 sequence: T1 sequence with L85A
The experiment in a line: fluorescence anisotropy.

The target of another series is T8, LGP2 RD K634E (human, UniProt Q96C10 537-678, K634E).
T8 sequence: T1 sequence with K98E
The experiment in a line: fluorescence anisotropy.

The next series addresses T9, LGP2 RD N583D (human, UniProt Q96C10 537-678, N583D).
T9 sequence: T1 sequence with N47D
The experiment in a line: fluorescence anisotropy.

Numbering of substitutions follows the chain as printed. Read-outs that look alike come from different tables or passages of the source.

B1: 5'PPP dsRNA 19 bp (dsRNA)
RNA 1: GCAUGCGACCUCUGUUUGA
RNA 2: UCAAACAGAGGUCGCAUGC
modifications: 5'-triphosphate on sense strand
Take B1: the binding result with LGP2 RD wt [1] is on record as “binds”.

B2: 5'OH dsRNA 19 bp (dsRNA)
RNA 1: GCAUGCGACCUCUGUUUGA
RNA 2: UCAAACAGAGGUCGCAUGC
Turning to B2, in the series with LGP2 RD wt [2], the binding result was “binds”.

B3: 25 bp dsRNA (dsRNA)
RNA 1: GCUUGUCGGGAGCGCCACCCUCUGC
RNA 2: GCAGAGGGUGGCGCUCCCGACAAGC
Regarding B3, the equilibrium dissociation constant (Kd) in the series with LGP2 RD wt [3] is 0.068 ± 0.006 µM; in the series with LGP2 RD P606K, 0.23 ± 0.01 µM; with LGP2 RD W604A, 0.136 ± 0.006 µM; with LGP2 RD H576Y, 0.304 ± 0.01 µM; in the series with LGP2 RD K626E, 0.051 ± 0.005 µM; with LGP2 RD K605E it was 0.14 ± 0.016 µM. In addition, the values for the Kd in the series with LGP2 RD L621A and with LGP2 RD N583D were 0.165 ± 0.026 µM and 0.038 ± 0.004 µM, respectively. In addition, the binding result with LGP2 RD K634E is recorded as “no binding”.

(Values after paper PMC2665237.)
